Data published in patent US20230218710A1 (COHBAR, published 2023).
Square brackets hold non-standard residues; d marks the D form. Primed or numbered codes have the meaning given here. Ends that are not written are not given here. PEG12″ = polyethylene glycol with 12 units (PEG-12)

T1: Apelin Receptor (APJ) stably overexpressed in CHO-K1 AGTRL1 Gi cells (UniProt P35414 1-380, limits assumed)
T1 sequence (looked up): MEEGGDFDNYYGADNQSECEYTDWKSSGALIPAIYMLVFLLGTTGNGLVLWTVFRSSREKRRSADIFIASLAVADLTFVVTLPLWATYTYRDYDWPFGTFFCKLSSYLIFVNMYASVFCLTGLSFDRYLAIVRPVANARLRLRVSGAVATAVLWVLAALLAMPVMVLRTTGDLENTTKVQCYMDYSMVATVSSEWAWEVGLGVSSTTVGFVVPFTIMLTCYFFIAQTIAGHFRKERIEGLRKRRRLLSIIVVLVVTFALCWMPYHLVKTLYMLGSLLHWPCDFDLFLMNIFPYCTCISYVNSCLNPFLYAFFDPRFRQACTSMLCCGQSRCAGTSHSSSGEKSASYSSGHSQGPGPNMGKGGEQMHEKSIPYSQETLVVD


Experiments:
[1] = target: ProLink tagged human APJ (Apelin Receptor) in CHO-K1 AGTRL1 β-Arrestin cells (human, UniProt P35414 1-380); experiment: cell-based or functional assay
[2] = target: T1, Apelin Receptor (APJ) stably …; experiment: cell-based or functional assay

Binder | β-Arrestin recruitment, Percent of Apelin-13 Control Activity (10 µM peptide) [1] [%] | inhibition of forskolin-induced cAMP, Percent of Pyr-Apelin-13 Control Activity (10 µM peptide) [2] [%]
RRMMGMVFQCLSG[dA] [SEQ ID NO: 16] | 0 | 
RXLLGLVFQSLCGA ((Aib) = aminoisobutyric acid at position 2; C-terminal (dA) = D-alanine) [SEQ ID NO: 35] | 17 | 8
RRMMGMVFQCLCG[dA] (cysteine pairing not given here) [SEQ ID NO: 8] | 17 | 64
RRLLGLVFQSLCG[dA] [SEQ ID NO: 33] | 9 | 27
RREMVYQCLEG[dA] [SEQ ID NO: 26] | 0 | 29
RRMMGMVFQSLCG[dA]-NH2 [SEQ ID NO: 62] | 2 | 27
RXMMGMVFQSLCGA ((Aib) = aminoisobutyric acid at position 2; C-terminal (dA) = D-alanine) [SEQ ID NO: 34] | 8 | 61
RRMMGMVFQ [SEQ ID NO: 58] | 0 | 5
RRMVYQCLCG[dA] (cysteine pairing not given here) [SEQ ID NO: 22] | 0 | 62
KRRMMGMVFQCLCGA ((PEG12) at the N-terminal K; C-terminal (dA) = D-alanine) [SEQ ID NO: 20] | 1 | 37
MMGMVF [SEQ ID NO: 45] | 0 | 10
RRMMGMVF [SEQ ID NO: 57] | 0 | -1
RRMMGMVYQCLEG[dA] [SEQ ID NO: 29] | 0 | 21
RRMMGMVFQSL [SEQ ID NO: 60] | 0 | 16
RRMVFQCLEG[dA] [SEQ ID NO: 23] | 0 | -4
RRMAYQCLEG[dA] [SEQ ID NO: 27] | -1 | 9
RRXXGXVFQCLCGA ((Nle) = norleucine at positions 3, 4 and 6; C-terminal (dA) = D-alanine) [SEQ ID NO: 18] | 1 | 30
Ac-RRMMGMVFQSLCG[dA] [SEQ ID NO: 61] | 5 | 1
RRMMGMVYQCLCG[dA] (cysteine pairing not given here) [SEQ ID NO: 10] | 3 | 70
RRMEVYQCLCG[dA] (cysteine pairing not given here; also: places D-Ala at position 13) [SEQ ID NO: 31] | 0 | 2

Binder | β-Arrestin recruitment, Percent of Apelin-13 Control Activity (10 µM peptide) [1] [%] | inhibition of forskolin-induced cAMP, Percent of Pyr-Apelin-13 Control Activity (10 µM peptide) [2] [%]
RRMVFQCLCG[dA] (cysteine pairing not given here) [SEQ ID NO: 19] | 1 | 27
RRMMGM [SEQ ID NO: 55] | 1 | -7
RRMMGMVEQSLCG[dA] [SEQ ID NO: 38] | 0 | 12
RRMGYQCLEG[dA] [SEQ ID NO: 28] | -1 | 3
RRMMGMV [SEQ ID NO: 56] | 0 | -2
RRLLGLVEQSLCG[dA] [SEQ ID NO: 40] | 0 | 19
Ac-RRMMGMVFQSLCG[dA]-NH2 [SEQ ID NO: 63] | 9 | 21
RRLLGLVFQSLEG[dA] [SEQ ID NO: 41] | 0 | 15
MMGMV [SEQ ID NO: 44] | 0 | 5
RMMGMVFQSLCG[dA] [SEQ ID NO: 54] | 1 | 20
RRMMGMVFQSLEG[dA] [SEQ ID NO: 39] | 0 | -13
RRMMGMVFQS [SEQ ID NO: 59] | 0 | -2
RMMGMVFQS [SEQ ID NO: 52] | 0 | 15
RRMEVYQCLEG[dA] [SEQ ID NO: 32] | 0 | 4
RMMGMVFQSL [SEQ ID NO: 53] | 1 | 6
RRMMGMVFQSLSG[dA] [SEQ ID NO: 17] | 10 | 26
RRMVYQCLEG[dA] [SEQ ID NO: 24] | -1 | 16
RREMVYQCLCG[dA] (cysteine pairing not given here) [SEQ ID NO: 25] | -1 | 3
RRMMGMVAQCLEG[dA] [SEQ ID NO: 30] | -1 | 31
RRMMGMVFQCLCG[dA]K(PEG12″) (cysteine pairing not given here) [SEQ ID NO: 21] | 1 | 34
